In experiment [1] the target is T1, recombinant FVIII (human, UniProt P00451 20-2351).
T1 chain: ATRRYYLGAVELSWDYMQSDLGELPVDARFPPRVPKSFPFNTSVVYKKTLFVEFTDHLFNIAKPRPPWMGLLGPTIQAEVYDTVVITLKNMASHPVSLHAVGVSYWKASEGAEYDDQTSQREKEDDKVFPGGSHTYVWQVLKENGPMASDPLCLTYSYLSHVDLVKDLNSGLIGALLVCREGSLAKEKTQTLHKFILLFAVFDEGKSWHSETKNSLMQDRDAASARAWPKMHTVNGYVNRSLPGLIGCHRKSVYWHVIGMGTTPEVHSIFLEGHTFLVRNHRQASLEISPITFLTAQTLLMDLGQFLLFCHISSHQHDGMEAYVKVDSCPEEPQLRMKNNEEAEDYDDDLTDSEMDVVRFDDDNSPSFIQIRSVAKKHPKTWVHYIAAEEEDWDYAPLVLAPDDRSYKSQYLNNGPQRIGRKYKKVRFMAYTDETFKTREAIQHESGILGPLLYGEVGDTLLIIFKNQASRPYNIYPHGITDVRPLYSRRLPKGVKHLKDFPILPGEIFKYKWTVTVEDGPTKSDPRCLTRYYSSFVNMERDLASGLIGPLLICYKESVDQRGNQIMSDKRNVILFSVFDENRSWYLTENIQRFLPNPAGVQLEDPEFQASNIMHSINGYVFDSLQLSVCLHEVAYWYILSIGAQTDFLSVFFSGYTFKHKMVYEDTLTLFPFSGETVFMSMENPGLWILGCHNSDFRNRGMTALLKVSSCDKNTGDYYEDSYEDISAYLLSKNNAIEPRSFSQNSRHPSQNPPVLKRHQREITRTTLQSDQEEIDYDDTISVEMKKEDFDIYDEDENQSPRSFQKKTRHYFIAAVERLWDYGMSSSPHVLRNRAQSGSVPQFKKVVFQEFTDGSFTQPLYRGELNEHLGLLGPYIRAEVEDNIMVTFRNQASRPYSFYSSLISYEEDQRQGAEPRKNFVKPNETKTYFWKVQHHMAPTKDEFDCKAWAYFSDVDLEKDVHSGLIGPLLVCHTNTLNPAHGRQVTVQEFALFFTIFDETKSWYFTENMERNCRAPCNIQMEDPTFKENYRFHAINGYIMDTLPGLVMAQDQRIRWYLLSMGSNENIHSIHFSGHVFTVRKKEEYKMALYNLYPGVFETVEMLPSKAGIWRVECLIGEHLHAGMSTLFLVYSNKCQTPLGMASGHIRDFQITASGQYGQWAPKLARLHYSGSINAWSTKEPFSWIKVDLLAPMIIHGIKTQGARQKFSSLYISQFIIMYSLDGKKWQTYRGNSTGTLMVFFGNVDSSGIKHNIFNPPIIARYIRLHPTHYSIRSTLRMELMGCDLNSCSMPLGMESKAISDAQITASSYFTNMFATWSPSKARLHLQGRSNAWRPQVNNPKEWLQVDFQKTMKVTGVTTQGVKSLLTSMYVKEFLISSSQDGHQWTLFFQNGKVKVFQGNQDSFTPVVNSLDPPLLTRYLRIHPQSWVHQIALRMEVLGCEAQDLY
Kind of experiment: SPR (BIAcore), antibody immobilised on CM5 chip, FVIII infused.

For experiment [2], the target named is Factor VIII in a pool of normal human plasma (human), P00451. Kind of experiment: cell-based or functional assay.
The target in experiment [3] is recombinant FVIII (human), P00451. Briefly: cell-based or functional assay.

B1: CHO-recKRIX-1 (recombinant Krix-1 produced in CHO cells) (antibody, V domains shown)
VH: QVQLVQSGAEVKKPGASVKVSCKTSGYNFTGYSASGHIFTAYSVHWVRQAPGQGLEWMGRINPNSGATDYAHKFQGRVTMSRDTSISTAYMELSRLTSDDTAMYYCARADNYFDIVTGYTSHYFDYWGRGTLVTVSS
VL: EIVLTQSPGTLSLSPGERATLSCRASQSVASAYLAWYQQKPGQAPRLLIYGASSRATDIPHRFSGSGSGTDFTLTISRLEPEDFAVYYCQQYGTSALLTFGGGTKVEIKR
modifications: N-linked glycosylation site at Asn47-Thr49, glycosylated as produced by CHO cells
notes: also called native CHO-rec-KRIX-1; rec-mAb Krix-1
As for B1, the Kd in experiment [1] turned out to be 0.14 nM.

B2: CHO-recKRIX-1A (Krix-1 with Thr49 changed to Ala in the heavy chain, produced in CHO cells) (antibody, IgG4, V domains shown)
VH: QVQLVQSGAEVKKPGASVKVSCKTSGYNFAGYSASGHIFTAYSVHWVRQAPGQGLEWMGRINPNSGATDYAHKFQGRVTMSRDTSISTAYMELSRLTSDDTAMYYCARADNYFDIVTGYTSHYFDYWGRGTLVTVSS
VL: EIVLTQSPGTLSLSPGERATLSCRASQSVASAYLAWYQQKPGQAPRLLIYGASSRATDIPHRFSGSGSGTDFTLTISRLEPEDFAVYYCQQYGTSALLTFGGGTKVEIKR
notes: IgG4 kappa; The mutation disrupts the N-linked glycosylation site at Asn47-Thr49
In the case of B2, the Kd in experiment [1] came to 0.13 nM.

B3: CHO-recKRIX-1Q (Krix-1 with Asn47 changed to Gln in the heavy chain, produced in CHO cells) (antibody, IgG4, V domains shown)
VH: QVQLVQSGAEVKKPGASVKVSCKTSGYQFTGYSASGHIFTAYSVHWVRQAPGQGLEWMGRINPNSGATDYAHKFQGRVTMSRDTSISTAYMELSRLTSDDTAMYYCARADNYFDIVTGYTSHYFDYWGRGTLVTVSS
VL: EIVLTQSPGTLSLSPGERATLSCRASQSVASAYLAWYQQKPGQAPRLLIYGASSRATDIPHRFSGSGSGTDFTLTISRLEPEDFAVYYCQQYGTSALLTFGGGTKVEIKR
notes: IgG4 kappa; The mutation disrupts the N-linked glycosylation site at Asn47-Thr49; also called Asn47Gln Krix-1; rec-mAb-KRIX-1Q
Regarding B3, in experiment [1], the Kd is 0.17 nM.

B4: Krix-1 (human monoclonal antibody KRIX-1 produced in a lymphoblastoid cell line) (antibody, V domains shown)
VH: QVQLVQSGAEVKKPGASVKVSCKTSGYNFTGYSASGHIFTAYSVHWVRQAPGQGLEWMGRINPNSGATDYAHKFQGRVTMSRDTSISTAYMELSRLTSDDTAMYYCARADNYFDIVTGYTSHYFDYWGRGTLVTVSSASTKGPSVF
VL: EIVLTQSPGTLSLSPGERATLSCRASQSVASAYLAWYQQKPGQAPRLLIYGASSRATDIPHRFSGSGSGTDFTLTISRLEPEDFAVYYCQQYGTSALLTFGGGTKVEIKRTVAAPSVFIFPPS
modifications: here or on the partner: N-linked glycosylation site at Asn47-Thr49, glycosylated as produced by the human lymphoblastoid cell line
In experiment [2], B4 displayed an inhibition of FVIII activity in plasma (Bethesda assay, chromogenic FVIII assay) of 90% and an inhibition of FVIII activity in plasma (chromogenic assay) of 90%.

B5: deglycosylated KRIX-1 (KRIX-1 treated with N-glycosidase-F) (antibody, IgG4, V domains shown)
VH: QVQLVQSGAEVKKPGASVKVSCKTSGYNFTGYSASGHIFTAYSVHWVRQAPGQGLEWMGRINPNSGATDYAHKFQGRVTMSRDTSISTAYMELSRLTSDDTAMYYCARADNYFDIVTGYTSHYFDYWGRGTLVTVSSASTKGPSVF
VL: EIVLTQSPGTLSLSPGERATLSCRASQSVASAYLAWYQQKPGQAPRLLIYGASSRATDIPHRFSGSGSGTDFTLTISRLEPEDFAVYYCQQYGTSALLTFGGGTKVEIKRTVAAPSVFIFPPS
modifications: here or on the partner: N-linked glycans removed by N-glycosidase-F (2 U/ml, 37 C, 72 h)
As to B5, in experiment [2], the inhibition of FVIII activity in plasma (chromogenic assay) was 50% and the maximal inhibition (plateau inhibition) of FVIII activity in plasma (Bethesda assay, chromogenic FVIII assay) was 50%.

B6: CHO-recKRIX-1 (recombinant Krix-1 produced in CHO cells) (antibody, V domains shown)
VH: QVQLVQSGAEVKKPGASVKVSCKTSGYNFTGYSASGHIFTAYSVHWVRQAPGQGLEWMGRINPNSGATDYAHKFQGRVTMSRDTSISTAYMELSRLTSDDTAMYYCARADNYFDIVTGYTSHYFDYWGRGTLVTVSSASTKGPSVF
VL: EIVLTQSPGTLSLSPGERATLSCRASQSVASAYLAWYQQKPGQAPRLLIYGASSRATDIPHRFSGSGSGTDFTLTISRLEPEDFAVYYCQQYGTSALLTFGGGTKVEIKRTVAAPSVFIFPPS
modifications: here or on the partner: N-linked glycosylation site at Asn47-Thr49, glycosylated as produced by CHO cells
B6 gave a maximal inhibition of FVIII activity in large excess of antibody (chromogenic assay) in experiment [2] of 75 to 85%.

B7: RHD5 (human monoclonal antibody from the lymphoblastoid cell line RHD5) (antibody, V domains shown)
VH: QVQLVQSGAEVKKPGSSVMVSCKASGGTFSSFGISWVRQAPGQGLEWVGGIIPIFGTANTARNFQNRVTITADEFTSTAYIRLRSLRSEDTAVYYCVGGRDAYSFDGFDVWGQGTMVTVSSASTKGPSVFP
VL: SSGLTQPHSVSVSPGQTANITCSRDKLGHKFASWYQQKPGQSPALLIYQDSKRPSGIPERFSGSNSGNTATLTISGTQAMDEADYYCQAWDNTTAVFGGGTKLTVLSQPKAAPSVTLFPPS
For the molecule B7, the inhibition of FVIII activity at a final concentration of RHD5 of 100 microgram/ml (plasma) in experiment [2] amounted to 97%. The inhibition of FVIII activity at a final concentration of RHD5 of 100 microgram/ml (full length recombinant FVIII) in experiment [3] came out at 98%.

Values taken from patent publication US20060292149A1 (LIFE SCIENCES RESEARCH PARTNERS, published 2006).
